From PMC4426023 (Cell reports, 2015)
Values belong to the molecule of their own block, whether it stands above or below them.

How the values were obtained:
[1] = biological target: DOT1L Site 1 peptide, fluorescently tagged (UniProt Q8TEK3); assay: fluorescence polarisation
[2] = biological target: DOT1L Site 2 peptide, fluorescently tagged (UniProt Q8TEK3); assay: fluorescence polarisation
[3] = biological target: T1, DOT1L repeat motif (Sites 2 and 3, aa. 863–900) (UniProt Q8TEK3 863-900); assay: SEC
T1 chain (looked up): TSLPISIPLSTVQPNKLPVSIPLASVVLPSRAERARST

Chain of DOT1L Site 1 peptide, fluorescently tagged (Q8TEK3 628-653): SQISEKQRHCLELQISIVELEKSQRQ

Kd [1]: > 2000 nM
fold weaker affinity than DOT1L (Site 3) [2]: 17 fold
Molecule: MBP-AF9 AHD (WT) (domain or fragment)

stoichiometry N [3]: 2
B1: AF9 ANC1 homology domain (aa. 499–568) (domain or fragment, UniProt P42568 499-568, looked up)
chain: CDKAYLDELVELHRRLMTLRERHILQQIVNLIEETGHFHITNTTFDFDLCSLDKTTVRKLQSYLETSGTS
